Laboratory results reported in IntAct's records for PubMed 21239581.

B1: Chromosomal replication initiator protein DnaA (Bacillus subtilis), P05648 (parent)
chain: MENILDLWNQALAQIEKKLSKPSFETWMKSTKAHSLQGDTLTITAPNEFARDWLESRYLHLIADTIYELTGEELSIKFVIPQNQDVEDFMPKPQVKKAVKEDTSDFPQNMLNPKYTFDTFVIGSGNRFAHAASLAVAEAPAKAYNPLFIYGGVGLGKTHLMHAIGHYVIDHNPSAKVVYLSSEKFTNEFINSIRDNKAVDFRNRYRNVDVLLIDDIQFLAGKEQTQEEFFHTFNTLHEESKQIVISSDRPPKEIPTLEDRLRSRFEWGLITDITPPDLETRIAILRKKAKAEGLDIPNEVMLYIANQIDSNIRELEGALIRVVAYSSLINKDINADLAAEALKDIIPSSKPKVITIKEIQRVVGQQFNIKLEDFKAKKRTKSVAFPRQIAMYLSREMTDSSLPKIGEEFGGRDHTTVIHAHEKISKLLADDEQLQQHVKEIKEQLK
partner: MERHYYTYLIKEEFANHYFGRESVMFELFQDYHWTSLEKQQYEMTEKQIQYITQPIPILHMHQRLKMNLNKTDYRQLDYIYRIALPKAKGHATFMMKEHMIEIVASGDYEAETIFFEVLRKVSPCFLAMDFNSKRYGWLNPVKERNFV

Variants of: B1
Settings: with sira_bacsu sirA

Effect of a mutation on the interaction, disrupting interaction:
MENILDLWNQALAQIEKKLSKPSFETWMKSTKAHSLQGDTLTITAPNEFTRDWLESRYLHLIADTIYELTGEELSIKFVIPQNQDVEDFMPKPQVKKAVKEDTSDFPQNMLNPKYTFDTFVIGSGNRFAHAASLAVAEAPAKAYNPLFIYGGVGLGKTHLMHAIGHYVIDHNPSAKVVYLSSEKFTNEFINSIRDNKAVDFRNRYRNVDVLLIDDIQFLAGKEQTQEEFFHTFNTLHEESKQIVISSDRPPKEIPTLEDRLRSRFEWGLITDITPPDLETRIAILRKKAKAEGLDIPNEVMLYIANQIDSNIRELEGALIRVVAYSSLINKDINADLAAEALKDIIPSSKPKVITIKEIQRVVGQQFNIKLEDFKAKKRTKSVAFPRQIAMYLSREMTDSSLPKIGEEFGGRDHTTVIHAHEKISKLLADDEQLQQHVKEIKEQLK [A50T]
MENILDLWNQALAQIEKKLSKPSFETWMKSTKAHSLQGDTLTITAPDEFARDWLESRYLHLIADTIYELTGEELSIKFVIPQNQDVEDFMPKPQVKKAVKEDTSDFPQNMLNPKYTFDTFVIGSGNRFAHAASLAVAEAPAKAYNPLFIYGGVGLGKTHLMHAIGHYVIDHNPSAKVVYLSSEKFTNEFINSIRDNKAVDFRNRYRNVDVLLIDDIQFLAGKEQTQEEFFHTFNTLHEESKQIVISSDRPPKEIPTLEDRLRSRFEWGLITDITPPDLETRIAILRKKAKAEGLDIPNEVMLYIANQIDSNIRELEGALIRVVAYSSLINKDINADLAAEALKDIIPSSKPKVITIKEIQRVVGQQFNIKLEDFKAKKRTKSVAFPRQIAMYLSREMTDSSLPKIGEEFGGRDHTTVIHAHEKISKLLADDEQLQQHVKEIKEQLK [N47D]
MENILDLWNQALAQIEKKLSKPSFETWMKSTKAHSLQGDTLTITAPNEYARDWLESRYLHLIADTIYELTGEELSIKFVIPQNQDVEDFMPKPQVKKAVKEDTSDFPQNMLNPKYTFDTFVIGSGNRFAHAASLAVAEAPAKAYNPLFIYGGVGLGKTHLMHAIGHYVIDHNPSAKVVYLSSEKFTNEFINSIRDNKAVDFRNRYRNVDVLLIDDIQFLAGKEQTQEEFFHTFNTLHEESKQIVISSDRPPKEIPTLEDRLRSRFEWGLITDITPPDLETRIAILRKKAKAEGLDIPNEVMLYIANQIDSNIRELEGALIRVVAYSSLINKDINADLAAEALKDIIPSSKPKVITIKEIQRVVGQQFNIKLEDFKAKKRTKSVAFPRQIAMYLSREMTDSSLPKIGEEFGGRDHTTVIHAHEKISKLLADDEQLQQHVKEIKEQLK [F49Y]
